Laboratory results from the nanobody polyreactivity screen of Harvey et al. (2022).

Experiment: yeast display, Sf9 membrane polyspecificity reagent, FACS + sequencing; frameworks hold sequencing errors
Method in brief: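 Sorting gates, low and high (top ~1%), were placed on anti-HA fluorescence to track expression and on streptavidin fluorescence to track reagent binding. A clone's polyreactivity label is taken from the gate it came out of. The reagent was 10% biotinylated, detergent-solubilized Sf9 membrane, applied for 1 hour at 4 °C to galactose-induced yeast display cells.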

Row | Sequence | polyreactivity (PSR sort gate)
1 | QVQLVESGGGLVQAGGSLRLSCASSGSIFQYYVMGWYRPAPGKERELVAAMRRSGTTYYADSVKGRFTISRDNAKHTLDLQMNSLKPEDTAVYYCNKVRGQEPSNYDYWGQGTQVTVSS | low polyreactivity
2 | QVQLVESGGGLVQAGGSLRLSCASSGSIFRYNAMGWYRQAPGKEREFVAAISYSGGRTYYADSLKGRFTISRDNAKNNVYLQMNIQKPEDTAVYYCAARLKRPFSGYDNWGQGTQVSVSS | high polyreactivity
3 | QVQLVESGGGLVQAGGSLRLSCASSGSIFYDNAMGWYRQAPGKDRELVAAITVTGGSTYYADSVKGRFTISRDNAKNTVYLQMNSLKPEDTAVFYCAADPDYFDYWGQGTQVTVSS | low polyreactivity
4 | QVQLVESGGGLVQAGGSLRLSCASSGSIFYVYAMGWYRQAPGKERELVATIDWSGGSTYYADSVKGRFTISRDNAKNTVYLQMNSLKPEDTAVYYCAAYGLYGYRRRYRVSFTPYDYWGQGTQVNVSS | low polyreactivity
5 | QVQLVESGGGLVQAGGSLRLSCASSGSISAVNTMGWYRQAPGKERELVATISYSTASTYYADSVKGRFTMSRDNAKKTVYLQMNSLKPEDTAVYYCNKDGRWYAYNSEYDHWGQGTQVTVSS | low polyreactivity
6 | QVQLVESGGGLVQAGGSLRLSCASSGSTFKYYAMGWYRQAPGKERELVAAISSGGSTYYADSVKGRFTISRDNAKNTVYLLMNSLKPEDTAVYDCAARGYYGNFSGSGYWGQGTQVTVSS | high polyreactivity
7 | QVQLVESGGGLVQAGGSLRLSCASSGTFHKYAMGWYRQAPGKERELVASISRSGGSTSYADSVKGRFTISRDNAKNNVYLQMNSLKPEDTAVYYCNTPWGAYKYDYWGQGTEVTVSS | high polyreactivity
8 | QVQLVESGGGLVQAGGSLRLSCASSGYIFSLSGMGWYRQAPGKERELVAAITGSGGGTYADSVKGRFTISRDNAKNTVYLQMISLKPEDTAVYYCAAGGYRRRFWPIYDYWGQGTQVSVSS | low polyreactivity
9 | QVQLVESGGGLVQAGGSLRLSCASSGYTFALYAKGWYRQAPGKERELVAAITDSDGSTYADSVKGRFTITRDNAKNTVYLQMNSVKPEDTAVYYCAAESEQWYSYVLSYDWEYDYWGQGTQVTVSS | low polyreactivity
10 | QVQLVESGGGLVQAGGSLRLSCASSRFNFRSYAMGWYRHPPGKERELVAAISRSGGSTYYADSVKGRFTISRDNAKNTVYLQMNSLKPEDTAVYYCAAEYRIPYFFTYGYWGQGTQVTVSS | high polyreactivity
11 | QVQLVESGGGLVQAGGSLRLSCASYGSIFAYYTMGWYRQAPGKARELVATISSRGGSKNYADSVKGRFTISRDNAKNPVYLQMNSLRPEDTAVYYCYAYHYQSGITVSEYDYWGQGTQVTVSS | high polyreactivity
12 | QVQLVESGGGLVQAGGSLRLSCATSGFTFGWNYMGWYRQAPGKERELVAAITWSGGSTYYADSVKGRFTISRDNAKNTVYLQMNSLKPEDTAVYYCAAVVSDYVWRYEYWGQGSQVTVSS | low polyreactivity
13 | QVQLVESGGGLVQAGGSLRLSCATSGRTFSQYAMGWYRQAPGKERELVAVISGSGGSTYYADSVKGRFTISRDNAKNTVYLQINSLKPEDTAVYYCAKRATSWHQYDYWGQGTQVTVSS | low polyreactivity
14 | QVQLVESGGGLVQAGGSLRLSCATTGSTFQVYTMGWNRQAPGKEREFVASISWSGSSTYYADSVKGRFTISRDNAKNTVYLQMNSLKPEDTAVYYCAARARIKYLADPGYYWGQGTQVTVSS | high polyreactivity
15 | QVQLVESGGGLVQAGGSLRLSCAVSGRIFRRNVMGWYRQAPGKDRELVAGISDSGDSTYYADSVKVRFTISRDNAKNTVYLQMNSLKPEDTAVYYCNARYSTTYYGTIYRGMDYWGQGTQVNVSS | high polyreactivity
16 | QVQLVESGGGLVQAGGSLRLSCDAAGLIFRLNAMGWYRPAPGKERELVAAISFSGGGTYYADSVKGRFTISRDNAKNTVYLQMNSLKPEDTAVYFCAADEYAVYYYYNYEYWGQGTQVTVSS | high polyreactivity
17 | QVQLVESGGGLVQAGGSLRLSCDASGFIFKGNAMGWYRHAPRKERELVAAITNRGGGTYYADSVKGRFTISRDNAKNTVYLQMNSLKPEDTAVYYCAKAYTRPFHPYDYWGQGTQVTVSS | high polyreactivity
18 | QVQLVESGGGLVQAGGSLRLSCDASGFIFRYYDMGWYRQAPGKERELVAAISWRGGRTYYADSVKGRFTISRDNAKNTVYLQMNSLKPEVTAVYYCAAGFSLWTYPKPYGEDSWGQGTQVTVSS | high polyreactivity
19 | QVQLVESGGGLVQAGGSLRLSCDASGFIFYYYDMGWYRQAPGKERELVASIDNGGDTNYADSVKGRFTISLDNAKNTVYLQMNSLKPEDTAVYYCAAPYSPLWYPGGDYWRQGTQVTVSS | low polyreactivity
20 | QVQLVESGGGLVQAGGSLRLSCDASGFNIASYDMGWYRQAPGKERELVAAISKGGGRTYYADSVKGRFTISRDNAKNTVYLQMKSLKPEDTAVYYCAAYAPYPRRAYDYWGQGTQVTVSS | low polyreactivity
21 | QVQLVESGGGLVQAGGSLRLSCDASGFTFRVYAMGWYRQAPGKEREFVASIRSNDGRTYYADSVKGRFTISRDNAKNTVYLQLNSLKPEDTAVYYCAARYSPRGKRYDYWGQGTQVTVSS | high polyreactivity
22 | QVQLVESGGGLVQAGGSLRLSCDASGGIFYGYAMGWYRQAPGKERELVAAISDSGGSTYYSDSVKGRFTITRDNAKNNVYLQMNSLKPEDTAVYYCATDAPVGGYVSEGDYWGQGTQVTVSS | low polyreactivity

Row | Sequence | polyreactivity (PSR sort gate)
23 | QVQLVESGGGLVQAGGSLRLSCDASGITYHNYAMGWYRQAPGKEREYVAAITRNTASSYYADSVKGRFSISRDKAKNTVYFQMNSLKPEDTAVYYCAATDKKHRTAYDSWGQGTQVTVSS | low polyreactivity
24 | QVQLVESGGGLVQAGGSLRLSCDASGLIFPWNSMGWYRQAPGQERELVAAINGRDGSTYYADSVKGRFTISRDNAKNTVYLQMNSLKPEDTAVFYCAKGPSGVRTYREYDSWGQGTQVTVSS | low polyreactivity
25 | QVQLVESGGGLVQAGGSLRLSCDASGRIFGMYAMGWYRQSPGKEREFVAAISWRTGSTYYADSVKGRFTISRDNAKNTVYLQMNSLKPEDTAVYYCAAESAAKYGYWRQGTQVTVSS | high polyreactivity
26 | QVQLVESGGGLVQAGGSLRLSCDASGRIFRGYAMGWYRKAPGKERELVAAISGRGGRTNYADSVKGRFTISRDNAKNTVYLQMNSLKTEDTAVYYCAVKRLSYPYVGHYYFWGQGTQVTVSS | high polyreactivity
27 | QVQLVESGGGLVQAGGSLRLSCDASGRIFRVYAMGWYRPAPGKERELFAAISWSGGRTYYADSVKGRFTISRDNAKNTVYLQMNSLKPEDTAVYYCAAERGGPTYYSGGDYDYWGQGTQVTVSS | high polyreactivity
28 | QVQLVESGGGLVQAGGSLRLSCDASGRIFRYNAMGWYRQAPGKEREFVAAITWRGGSTYYADSVKGRFTISRDNAKYTVYLQMNSLKPEDTAVYYCATRSPFGAAYEYGYWGQGTQVTVSS | high polyreactivity
29 | QVQLVESGGGLVQAGGSLRLSCDASGRIFSENAMGWYRQAPGKERELVDAITGNGGDTYYADSVKGRFTISRDNAKNTVYLQMNSLKPEDTAVYYCAAVTGGLGGDYWGQGTQVTVSS | low polyreactivity
30 | QVQLVESGGGLVQAGGSLRLSCDASGRIFYANAIGWYRQAPGKEREFVAAITRSGGSTYYADSVKGRFTISRDNAKNTVYLQMNSLKPEETAVYYCAAQGGDVYGWRYYYWGQGTQVTVSS | low polyreactivity
31 | QVQLVESGGGLVQAGGSLRLSCDASGRIFYGYVMGWYRQAPGKERELVAAINQSGTSTYYADSVKGRFTISRDNAKNTVYLQMNSLKPEDTAVYYCAADQVGWTYDYWGQGTQVTVSS | low polyreactivity
32 | QVQLVESGGGLVQAGGSLRLSCDASGRTFASNVMGWYRQAPGKERELVAAISRRGGSTYYADSVKGRFTISRDNAKNTVYLQMNSLKPEDTAVYYCNADDKAQSDYWGQGTQVTVSS | high polyreactivity
33 | QVQLVESGGGLVQAGGSLRLSCDASGRTFGQNAMGWYRQAPGTERELVDAISASGSNTYYADSVKGRFTISRDNAKNTVYLQMNSLKPEDTAVYYCAKQVYRPGQQSRYDYWGQGTQVTVSS | low polyreactivity
34 | QVQLVESGGGLVQAGGSLRLSCDASGRTFGVYAMGWYRQAPGKERELVAAISTRGGSTYYADSVKGRFTISRDNAKNTVYLQMNSLKPEDTAVYYCAAEQYVWGYWFNYGYWGQGTQVTVSS | high polyreactivity
35 | QVQLVESGGGLVQAGGSLRLSCDASGRTLGGYTMGWYRQAPGKERELVAAITTGGSTNYADSVKGRFTISRDNAKNTVYLQMNSLKPEDTAVYYCATDLVFDKRYWYDYWGQGTQVTVSS | low polyreactivity
36 | QVQLVESGGGLVQAGGSLRLSCDASGRTSGINAMGWYRQAPGKERELVAAISSGGRTYYADSVKGRFTISRDNAKNTVYLQMNSLKPEDTAVYYCAAVIHWSLYRRMEYWGQGTQVTVSS | high polyreactivity
37 | QVQLVESGGGLVQAGGSLRLSCDASGRTYTGYAIGWYRQAPGKERELVAAISKSGGRTYYADSVKGRFTISRDYAKNTVYLQMNSLKPEDTAVYYCAKVETFLQIAYRRGYDSWGQGTQVTVSS | low polyreactivity
38 | QVQLVESGGGLVQAGGSLRLSCDASGSIFDGYGMGWYRQAPGKERELVASITWNDGSTYYADSVKGRFTISRDNAKNTVYLQMNSLKPEETAVYYCAADQWGYEYDYWGQGTQVTVSS | low polyreactivity
39 | QVQLVESGGGLVQAGGSLRLSCDASGSIFGWYAMGWYRQAPGKERELVAAITFSSVSTYYADSVKGRFTISRDNAKNTVYLLMNSLKPEDTAVYYCAAVVYYTFDYWGQGTQVTVSS | low polyreactivity
40 | QVQLVESGGGLVQAGGSLRLSCDASGSIFIYYAMGWYRQAPGKERELVAAIDYSGDSTYYADSVKGRFTISRDNAKNTVYGQMNSLKPEDTAVYYCARRGFLVHWPRPSYDYWGQGTQVTVSS | low polyreactivity
41 | QVQLVESGGGLVQAGGSLRLSCDASGSIFLFNAMGWYIQAPGKERELVASISRASSTSYADSVKGRFTISRDNAKNTVYLQMNSLKPEDTAVYYCAAVVASFEFRFDYWGQGTQVTVSS | low polyreactivity
42 | QVQLVESGGGLVQAGGSLRLSCDASGSIFQNYAMGWYRQAPGKERELVAAINDDSTYYADSVKGRFTISRDNAKNTVYLQMNSLKPEDTAVYYCNAEDYVTLKIDLSWPYGYWGQGTQVTVSS | low polyreactivity
43 | QVQLVESGGGLVQAGGSLRLSCDASGSIFSKYVMGCYRQAPGKERELVASITSGGSTNYADSVKGRFTISRDNAKNTVYLQMTSQKPEDTAVYFCAARAINTWYRSGVDDWCQGTQVTVSS | low polyreactivity
